Reference: publication PMC6242908

Target: MBP-KRIPP11-His6 (Trypanosoma brucei) (UniProt Q57YK5)
Experiment: fluorescence anisotropy
Conditions: FA: 20 mM Tris-HCl pH 7.5, 150 mM KCl, 5 mM MgCl2, 1 mM DTT, 20 nM RNA/DNA, 25 C, EMSA: same buffer with BSA and RNAsin, 150 nM RNA/DNA, 2% tris-glycine …

Row | Sequence | Kd [nM] | Kd (DNA) [nM]
1 | GGGGGGGGG [G9 RNA] | 1870 | –
2 | GGGG [G4 RNA] | 3420 | –
3 | GGGGGGGGGGGG [G12 RNA (native)] | 660 | –
4 | GGGGCCUUUAAA [G4C2U3A3] | 2210 | –
5 | GGGGGGGGGGGG [dG12] | – | 1880
6 | GGGGGGCCUUAA [G6C2U2A2] | 930 | –
7 | GGGGGG [G6 RNA] | 1070 | –
8 | GGUGGUGGUGGU [(GGU)4] | 6550 | –
